Results on two molecules are retold here after patent US20150140573A1.

In data set [1] the target is barley limit dextrinase present in barley malt extract (barley (Hordeum vulgare subsp. vulgare)). Kind of data set: cell-based or functional assay. To be noted: scale: fraction of the rate of the uninhibited sample.
Data set [2] addresses recombinant barley limit dextrinase inhibitor.

With “recombinant barley limit dextrinase inhibitor”, the rate of o-NP release from compound 6 in barley malt extract (absorbance at 430 nm), with and without added limit dextrinase inhibitor in data set [1] came to 0.1.

B1: barley limit dextrinase present in barley malt extract (protein)
chain: MAVGETGASVSAAEAEAEATQAFMPDARAYWVTSDLIAWNVGELEAQSVCLYASRAAAMSLSPSNGGIQGYDSKVELQPESAGLPETVTQKFPFISSYRAFKVPSSVDVASLVKCQLVVASFGADGKHVDVTGLQLPGVLDDMFAYTGPLGAVFSEDSVSLHLWAPTAQGVSVCFFDGPAGPALETVQLKESNGVWSVTGPREWENRYYLYEVDVYHPTKAQVLKCLAGDPYARSLSANGARTWLVDINNETLKPASWDELADEKPKLDSFSDITIYELHIRDFSAHDGTVDSDSRGGFRAFAYQASAGMEHLRKLSDAGLTHVHLLPSFHFAGVDDIKSNWKFVDECELATFPPGSDMQQAAVVAIQEEDPYNWGYNPVLWGVPKGSYASDPDGPSRIIEYRQMVQALNRIGLRVVMDVVYNHLDSSGPCGISSVLDKIVPGYYVRRDTNGQIENSAAMNNTASEHFMVDRLIVDDLLNWAVNYKVDGFRFDLMGHIMKRTMVTKSALQSLTTDAHGVDGSKIYLYGEGWDFAEVARNQRGINGSQLNMSGTGIGSFNDRIRDAINGGNPFGNPLQQGFNTGLFLEPNGFYQGNEADTRRSLATYADQIQIGLAGNLRDYVLISHTGEAKKGSEIHTFDGLPVGYTASPIETINYVSAHDNETLFDVISVKTPMILSVDERCRINHLASSMMALSQGIPFFHAGDEILRSKSIDRDSYNSGDWFNKLDFTYETNNWGVGLPPSEKNEDNWPLMKPRLENPSFKPAKGHILAALDSFVDILKIRYSSPLFRLSTANDIKQRVRFHNTGPSLVPGVIVMGIEDARGESPEMAQLDTNFSYVVTVFNVCPHEVSMDIPALASMGFELHPVQVNSSDTLVRKSAYEAATGRFTVPGRTVSVFVEPRC
Consider B1, for which the “hydrolysis of compound 19 in barley malt extract after 1 h at 60 C (UPLC, fluorescence detection), with and without added LDI” value in data set [2] is “When LDI was added to the extract, almost all activity of limit dextrinase was inhibited, and only negligible amounts of the compound 19 was hydrolyzed”.
